Target: MBP-ZAT10 (Arabidopsis thaliana, UniProt Q96289 1-227)
Assay: EMSA; 2 ug protein in 20 uL; EMSA/gel-shift binding 5x buffer (Beyotime; composition not stated), 20 uL, 25 C, 30 min, 12% native PAGE; protein eluted in 20 mM Tris-HCl, 100 mM NaCl, 10 mM
Conditions: protein: recombinant; tags: N-terminal MBP (pMAL-c4X); blunt

MBP-ZAT10, sequence (Q96289 whole entry): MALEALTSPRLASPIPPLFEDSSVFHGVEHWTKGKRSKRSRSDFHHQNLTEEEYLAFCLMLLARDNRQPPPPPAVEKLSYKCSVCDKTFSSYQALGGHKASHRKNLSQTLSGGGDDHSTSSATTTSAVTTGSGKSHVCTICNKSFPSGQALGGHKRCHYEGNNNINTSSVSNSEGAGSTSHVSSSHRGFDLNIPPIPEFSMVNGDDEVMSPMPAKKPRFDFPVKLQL

B1: ZAT10 promoter probe (P) (dsDNA)
DNA 1: ATCGCCACCTTCACTCTTCACACTTTCCTACCACTTGTCACGCAACTT
DNA 2: AAGTTGCGTGACAAGTGGTAGGAAAGTGTGAAGAGTGAAGGTGGCGAT
- binding result: binds

Reference: paper PMC9468636, “ZAT10 plays dual roles in cadmium uptake and detoxification in Arabidopsis”
